Reference: patent publication US20240182408A1, “DRIED PRENCSO COMPOSITION” (HOUSE FOODS GROUP INC., priority 2021, published 2024)

Assay: specific activity of LFS
Assay type: biochemical
Conditions: rLFS used in Examples

B1: rLFS: recombinant lachrymatory factor synthase (E2-3) produced in E. coli, GST tag removed (protein, UniProt P59082 13-169, looked up)
Lachrymatory-factor synthase: DSANGARKWSGKVHALLPNTKPEQAWTLLKDFINLHKVMPSLSVCELVEGEANVVGCVRYVKGIMHPIEEEFWAKEKLVALDNKNMSYSYIFTECFTGYEDYTATMQIVEGPEHKGSRFDWSFQCKYIEGMTESAFTEILQHWATEIGQKIEEVCSA
For B1, the specific activity was 6.0×10^6 area/μg.
